Reference: the supplement of paper PMC10126150
± gives the standard deviation of the averaged measurements.

Test system: ATP
Test: switch fluorescence ratio, 500 uM ATP over buffer (Cy3 cluster intensity, sum of 5 cycles each) (fold (ratio)); higher = stronger signal-on switching upon ATP binding; sequences stand for … in TCGTCGGCAGCGTCAGATGTGTATAAGAGACAGTTTTTTTTTTTTTTTTTTTTTTTTT…TC
Conditions: aptamer strand: ATP DNA aptamer (quencher-CACCTGGGGGAGTATTGCGGAGGAAGG + anchor), 100 nM annealed; ATP concentration: 500 uM
How it was run: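 After annealing to 100 nM quencher-labelled ATP aptamer, Cy3-labelled switching-strand clusters on a modified Illumina MiSeq flow-cell were imaged in selection buffer. A second image followed after 15 min with 500 uM ATP at 22 °C, and five such buffer/ATP cycles were done, each separated by NaOH stripping and re-annealing. The fluorescence ratio, averaged per switch-domain sequence, is summed target-cycle over summed buffer-cycle Cy3 intensity per cluster, with clusters outside 100-1000 RFU excluded.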
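Note: ATP exposure 15 min at 22 °C before imaging.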

Question: Which switch fluorescence ratio does the source give for TTGAGGGTAA here?
Answer: 0.99263 ± 0.00084

Question: How did the switch fluorescence ratio turn out when TTGAGGGTGC was run?
Answer: 1.01 ± 0.022

Question: With TTGAGGGTGG as the sequence, how does the switch fluorescence ratio read?
Answer: 1.0305 ± 0.0005

Question: How did the switch fluorescence ratio turn out when TTGAGGTACT was run?
Answer: 0.971 ± 0.052

Question: TTGAGGTAGT was tested. Which switch fluorescence ratio did it give?
Answer: 0.984 ± 0.014

Question: Which switch fluorescence ratio does the source give for TTGAGGTATG here?
Answer: 0.9838 ± 0.0046

Question: How did the switch fluorescence ratio turn out when TTGAGGTGGC was run?
Answer: 0.982 ± 0.018

Question: TTGAGGTTTG was tested. Which switch fluorescence ratio did it give?
Answer: 1.03 ± 0.019

Question: Which switch fluorescence ratio does the source give for TTGAGTAGGT here?
Answer: 0.987 ± 0.031

Question: How did the switch fluorescence ratio turn out when TTGAGTGCTT was run?
Answer: 0.987 ± 0.028

Question: TTGAGTGTGG was tested. Which switch fluorescence ratio did it give?
Answer: 0.998 ± 0.03

Question: For TTGAGTGTTG, which switch fluorescence ratio is on record?
Answer: 1.01 ± 0.049

Question: Which switch fluorescence ratio does the source give for TTGAGTTCTC here?
Answer: 0.978 ± 0.016

Question: For TTGAGTTTGG, which switch fluorescence ratio is on record?
Answer: 0.985 ± 0.022

Question: How did the switch fluorescence ratio turn out when TTGATAGCCT was run?
Answer: 1.06 ± 0.059

Question: Which switch fluorescence ratio does the source give for TTGATAGTAA here?
Answer: 1.04 ± 0.09

Question: How did the switch fluorescence ratio turn out when TTGATATGAG was run?
Answer: 0.989 ± 0.048

Question: How did the switch fluorescence ratio turn out when TTGATCAGTG was run?
Answer: 1.01 ± 0.015

Question: With TTGATCCGGG as the sequence, how does the switch fluorescence ratio read?
Answer: 1.1 ± 0.055

Question: With TTGATCGGGG as the sequence, how does the switch fluorescence ratio read?
Answer: 1.01 ± 0.028

Question: TTGATCTAAT was tested. Which switch fluorescence ratio did it give?
Answer: 1 ± 0.011

Question: With TTGATCTTGA as the sequence, how does the switch fluorescence ratio read?
Answer: 0.955 ± 0.085

Question: TTGATGAGTG was tested. Which switch fluorescence ratio did it give?
Answer: 1.01 ± 0.033

Question: Which switch fluorescence ratio does the source give for TTGATGGCTA here?
Answer: 0.983 ± 0.021

Question: With TTGATGGGAC as the sequence, how does the switch fluorescence ratio read?
Answer: 1.12 ± 0.021

Question: Which switch fluorescence ratio does the source give for TTGATGTGGT here?
Answer: 0.997 ± 0.084

Question: For TTGATTATCC, which switch fluorescence ratio is on record?
Answer: 0.99 ± 0.019

Question: TTGATTATTG was tested. Which switch fluorescence ratio did it give?
Answer: 0.999 ± 0.032

Question: For TTGATTTTGC, which switch fluorescence ratio is on record?
Answer: 0.993 ± 0.013

Question: For TTGATTTTGG, which switch fluorescence ratio is on record?
Answer: 0.988 ± 0.026

Question: How did the switch fluorescence ratio turn out when TTGCAAGTCA was run?
Answer: 1.05 ± 0.018

Question: TTGCAAGTTG was tested. Which switch fluorescence ratio did it give?
Answer: 1.01 ± 0.021

Question: For TTGCACCCGT, which switch fluorescence ratio is on record?
Answer: 1.04 ± 0.053

Question: TTGCACGTAA was tested. Which switch fluorescence ratio did it give?
Answer: 1.66 ± 0.42

Question: TTGCAGATGG was tested. Which switch fluorescence ratio did it give?
Answer: 0.999 ± 0.057

Question: How did the switch fluorescence ratio turn out when TTGCAGGTGG was run?
Answer: 1.03 ± 0.011

Question: How did the switch fluorescence ratio turn out when TTGCAGTTGT was run?
Answer: 0.993 ± 0.041

Question: Which switch fluorescence ratio does the source give for TTGCATGCCG here?
Answer: 0.972 ± 0.036

Question: Which switch fluorescence ratio does the source give for TTGCATTTTT here?
Answer: 1.01 ± 0.034

Question: How did the switch fluorescence ratio turn out when TTGCCGCTGT was run?
Answer: 1.18 ± 0.22

Question: How did the switch fluorescence ratio turn out when TTGCCGGGGG was run?
Answer: 1.24 ± 0.38

Question: TTGCCGGGGT was tested. Which switch fluorescence ratio did it give?
Answer: 1.1 ± 0.16

Question: Which switch fluorescence ratio does the source give for TTGCCGGTTT here?
Answer: 1.05 ± 0.021

Question: For TTGCCTAACT, which switch fluorescence ratio is on record?
Answer: 1.04 ± 0.028

Question: With TTGCCTAATG as the sequence, how does the switch fluorescence ratio read?
Answer: 0.972 ± 0.035

Question: Which switch fluorescence ratio does the source give for TTGCCTTCTT here?
Answer: 1.03 ± 0.033

Question: TTGCCTTTTT was tested. Which switch fluorescence ratio did it give?
Answer: 0.998 ± 0.028

Question: Which switch fluorescence ratio does the source give for TTGCGAATGT here?
Answer: 0.997 ± 0.038

Question: With TTGCGACCTG as the sequence, how does the switch fluorescence ratio read?
Answer: 1.05 ± 0.04

Question: How did the switch fluorescence ratio turn out when TTGCGAGAGA was run?
Answer: 0.993 ± 0.035

Question: With TTGCGAGGTC as the sequence, how does the switch fluorescence ratio read?
Answer: 0.985 ± 0.037

Question: Which switch fluorescence ratio does the source give for TTGCGGGATG here?
Answer: 1.04 ± 0.051

Question: With TTGCGGGGTA as the sequence, how does the switch fluorescence ratio read?
Answer: 0.978 ± 0.013

Question: With TTGCGGGGTG as the sequence, how does the switch fluorescence ratio read?
Answer: 1.01 ± 0.045

Question: How did the switch fluorescence ratio turn out when TTGCGGGTTT was run?
Answer: 1.29 ± 0.38

Question: With TTGCGGTGTG as the sequence, how does the switch fluorescence ratio read?
Answer: 1 ± 0.024

Question: With TTGCGTAAAA as the sequence, how does the switch fluorescence ratio read?
Answer: 0.961 ± 0.047

Question: Which switch fluorescence ratio does the source give for TTGCGTAAGG here?
Answer: 1.06 ± 0.056

Question: Which switch fluorescence ratio does the source give for TTGCGTACGG here?
Answer: 1.01 ± 0.053

Question: With TTGCGTGATG as the sequence, how does the switch fluorescence ratio read?
Answer: 1.02 ± 0.029

Question: TTGCGTGGGG was tested. Which switch fluorescence ratio did it give?
Answer: 1.005 ± 0.0065

Question: With TTGCTAATGC as the sequence, how does the switch fluorescence ratio read?
Answer: 1.18 ± 0.23

Question: For TTGCTACGGA, which switch fluorescence ratio is on record?
Answer: 1.04 ± 0.013

Question: TTGCTAGTTA was tested. Which switch fluorescence ratio did it give?
Answer: 0.971 ± 0.037

Question: TTGCTATGAA was tested. Which switch fluorescence ratio did it give?
Answer: 1.01 ± 0.054

Question: How did the switch fluorescence ratio turn out when TTGCTATTCG was run?
Answer: 0.992 ± 0.05

Question: For TTGCTATTTT, which switch fluorescence ratio is on record?
Answer: 1 ± 0.028

Question: How did the switch fluorescence ratio turn out when TTGCTCTCTG was run?
Answer: 1.03 ± 0.031

Question: Which switch fluorescence ratio does the source give for TTGCTGCAAA here?
Answer: 1.1 ± 0.12

Question: Which switch fluorescence ratio does the source give for TTGCTGGCGC here?
Answer: 1.036 ± 0.0055

Question: Which switch fluorescence ratio does the source give for TTGCTGGGG here?
Answer: 0.972 ± 0.037

Question: How did the switch fluorescence ratio turn out when TTGCTTCGTT was run?
Answer: 1.02 ± 0.029

Question: For TTGCTTCTAG, which switch fluorescence ratio is on record?
Answer: 0.979 ± 0.043

Question: For TTGCTTGTAT, which switch fluorescence ratio is on record?
Answer: 0.9992 ± 0.0098

Question: With TTGCTTTATT as the sequence, how does the switch fluorescence ratio read?
Answer: 0.987 ± 0.016

Question: For TTGGAAAAAT, which switch fluorescence ratio is on record?
Answer: 1.05 ± 0.071

Question: How did the switch fluorescence ratio turn out when TTGGAAAAGT was run?
Answer: 0.988 ± 0.036

Question: TTGGAAAATA was tested. Which switch fluorescence ratio did it give?
Answer: 1.009 ± 0.0042

Question: TTGGAAAGTG was tested. Which switch fluorescence ratio did it give?
Answer: 1.05 ± 0.13

Question: TTGGAAAGTT was tested. Which switch fluorescence ratio did it give?
Answer: 1.01 ± 0.028

Question: How did the switch fluorescence ratio turn out when TTGGAAATGG was run?
Answer: 1.03 ± 0.045

Question: For TTGGAACGAT, which switch fluorescence ratio is on record?
Answer: 1.02 ± 0.07

Question: TTGGAAGGGG was tested. Which switch fluorescence ratio did it give?
Answer: 1.13 ± 0.24

Question: Which switch fluorescence ratio does the source give for TTGGAAGTGC here?
Answer: 1 ± 0.056

Question: Which switch fluorescence ratio does the source give for TTGGAATGGA here?
Answer: 0.989 ± 0.029
